Data: US20110177077A1

Tests used:
[1] = molecular target: human PAX 5 protein (human) (UniProt Q02548); test: IHC, Reed Sternberg cells, Hodkins lymphoma 1, antibody at 3 ug/mL
[2] = molecular target: human PAX 5 protein (human) (UniProt Q02548); test: IHC, Reed Sternberg cells, Hodkins lymphoma 4, antibody at 3 ug/mL
[3] = molecular target: human PAX 5 protein (human) (UniProt Q02548); test: IHC, Reed Sternberg cells, Hodkins lymphoma 2, antibody at 3 ug/mL
[4] = molecular target: human PAX 5 protein (human) (UniProt Q02548); test: IHC, Reed Sternberg cells, Hodkins lymphoma 3, antibody at 3 ug/mL

Sequence of UniProt Q02548 (Q02548 whole entry): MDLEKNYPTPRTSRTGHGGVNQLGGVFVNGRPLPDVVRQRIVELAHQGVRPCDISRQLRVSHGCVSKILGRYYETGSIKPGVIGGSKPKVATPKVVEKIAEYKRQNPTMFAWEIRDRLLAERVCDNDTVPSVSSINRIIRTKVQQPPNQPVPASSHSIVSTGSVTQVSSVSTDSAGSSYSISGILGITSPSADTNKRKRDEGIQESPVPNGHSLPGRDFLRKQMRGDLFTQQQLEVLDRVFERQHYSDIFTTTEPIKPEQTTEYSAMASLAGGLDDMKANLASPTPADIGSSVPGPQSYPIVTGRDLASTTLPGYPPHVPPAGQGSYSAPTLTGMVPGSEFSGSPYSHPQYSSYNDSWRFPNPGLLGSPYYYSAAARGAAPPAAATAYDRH

IHC staining intensity score (score on a scale of 0 to 6) [1] | IHC staining intensity score (score on a scale of 0 to 6) [2] | IHC staining intensity score (score on a scale of 0 to 6) [3] | IHC staining intensity score (score on a scale of 0 to 6) [4] | Substance
6 | 6 | 0 | 2 | monoclonal mouse B-Cell Specific Activator Protein (BSAP), clone DAK-Pax5 (antibody)
2 | 2 | 0 | 1 | monoclonal mouse PAX 5, clone 24 (BD Biosciences) (antibody)
